Reference: doi:10.1101/2021.11.12.467822 (bioRxiv, 2021)
Substitutions are numbered along the chain they refer to. Names and notes keep the numbering of the source. One block for each binder: values may come before it.

Tests used:
HOTag6-G10-Ub [1] = assay: NMR titration
M1-linked Ub4 [2] = target: M1-linked Ub4 (UniProt P0CG48); assay: NMR titration
HOTag6-G10-Ub [3] = assay: fluorescence polarisation
M1-linked Ub4 [4] = target: M1-linked Ub4 (UniProt P0CG48); assay: fluorescence polarisation
ubiquitin (Ub) = ubiquitin (Ub) (UniProt P0CG48 1-76); assay: fluorescence polarisation

Sequence of M1-linked Ub4 (P0CG48 1-304): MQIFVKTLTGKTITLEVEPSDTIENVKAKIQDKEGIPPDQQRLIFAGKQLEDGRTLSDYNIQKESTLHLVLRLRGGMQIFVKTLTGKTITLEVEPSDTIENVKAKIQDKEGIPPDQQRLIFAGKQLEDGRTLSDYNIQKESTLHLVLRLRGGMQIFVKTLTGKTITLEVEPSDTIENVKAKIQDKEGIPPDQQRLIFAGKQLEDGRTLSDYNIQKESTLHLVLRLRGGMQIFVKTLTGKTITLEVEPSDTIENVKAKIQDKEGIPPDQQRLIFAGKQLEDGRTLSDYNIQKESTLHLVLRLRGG

Kd (HOTag6-G10-Ub [1]): 8.8 µM
Kd (M1-linked Ub4 [2]): 12.8 µM
B1: UBQLN2 450-624 (domain or fragment)
chain: RAMQALMQIQQGLQTLATEAPGLIPSFTPGVGVGVLGTAIGPVGPVTPIGPIGPIVPFTPIGPIGPIGPTGPAAPPGSTGSGGPTGPTVSSAAPSETTSPTSESGPNQQFIQQMVQALAGANAPQLPNPEVRFQQQLEQLNAMGFLNREANLQALIATGGDINAAIERLLGSQPS

Kd (HOTag6-G10-Ub [3]): 7 µM
Kd (M1-linked Ub4 [4]): 5.1 µM
Kd (ubiquitin (Ub)): 3.4 µM
B2: fluorescently-labeled UBQLN2 450-624 (S624C, Alexa Fluor 488) (domain or fragment)
chain: B1 chain with S175C
modifications: Alexa Fluor 488 C5 Maleimide label (S624C mutation)
